Results: article PMC2913173 (Journal of molecular biology, 2009)
Ends that are not written are not given here. eCPX = enhanced circularly permuted OmpX display protein

Biological target: T1, Bcl-xL (Homo sapiens, UniProt Q07817, DEL46-85)
Experiment: Cell surface display equilibrium binding assay with flow cytometry
Settings: cells displaying Bak–eCPX fusions, biotinylated Bcl-xL and SAPE

| Substance | Binding to Bcl-xL in words (fluorescence of cell population) |
| --- | --- |
| Bak(72–85): Bak(72–87) with deletion of residues N86 and R87, eCPX fusion (GQVGRQLAIIGDDI-eCPX) | reduction in binding to nearly background levels |
| Bak(72–117): eCPX fusion protein comprising helices α3 and α4 of Bak (GQVGRQLAIIGDDINRRYDSEFQTMLQHLQPTAENAYEYFTKIATS-eCPX) | fluorescence only slightly above background levels |
| Bak(74–87) GG: eCPX–Bak(74–87) in which the GQ sequence preceding the Bak peptide was changed to GG (GGVGRQLAIIGDDINR-eCPX) | bound Bcl-xL equally as well as Bak(72–87) |
| L78A: Bak(72–87) with the critical leucine in position 78 changed to alanine, displayed on eCPX (GQVGRQAAIIGDDINR-eCPX) [Construct L78A] | only background fluorescence |
| mut7: Bak(72–87) library variant: position 74 L, 78 L, 81 L, 85 F (GQLGRQLAILGDDFNR-eCPX) | highest fluorescence |
| mut8: Bak(72–87) library variant: position 74 L, 78 L, 81 F, 85 F (GQLGRQLAIFGDDFNR-eCPX) | highest fluorescence |

Biological target: T1, Bcl-xL
Experiment: not given
Settings: L78A amino acid change relative to Bak(72–87); cited from earlier work

| Substance | Decrease in binding affinity of Bak(72–87) for Bcl-xL [fold] |
| --- | --- |
| L78A: Bak(72–87) with the critical leucine in position 78 changed to alanine, displayed on eCPX (GQVGRQAAIIGDDINR-eCPX) [Construct L78A] | ~1000 |
